Data as given in article PMC8307404, “Crystal Structure-Guided Design of Bisubstrate Inhibitors and Photoluminescent Probes for Protein Kinases of the PIM Family” (Molecules, 2021).
Square brackets hold non-standard residues; d marks the D form. Peptide text beside a SMILES is read from it. * marks the point of attachment. X3 = O=C(CCCCCNCc1nc2c(sc3cc(Br)cnc32)c(=O)[nH]1)*

Columns and labels:
Assay in all cases: Kinase profiling (radiometric filter-binding)
Assay type in all cases: biochemical
GSK3 = GSK3 (Homo sapiens, UniProt P49841); details: GSK3 (Greek letter lost), 1 µM inhibitor; read-out: Residual activity, %
GSK3, sequence (P49841 whole entry): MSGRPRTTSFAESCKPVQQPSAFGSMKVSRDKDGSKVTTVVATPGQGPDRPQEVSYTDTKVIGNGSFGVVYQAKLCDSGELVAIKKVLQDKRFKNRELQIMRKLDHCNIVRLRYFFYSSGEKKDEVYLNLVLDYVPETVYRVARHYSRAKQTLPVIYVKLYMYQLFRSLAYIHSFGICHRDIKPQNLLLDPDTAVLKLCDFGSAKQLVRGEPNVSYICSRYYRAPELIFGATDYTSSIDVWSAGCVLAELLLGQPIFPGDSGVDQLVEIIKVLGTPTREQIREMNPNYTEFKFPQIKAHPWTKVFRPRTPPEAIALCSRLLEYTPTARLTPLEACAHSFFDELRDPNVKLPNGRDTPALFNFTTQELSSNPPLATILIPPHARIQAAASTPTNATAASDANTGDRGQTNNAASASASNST
In short: (§1)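 Filter-binding radiometric assays of human kinases measure the fraction of activity that persists with 1 µM inhibitor (final). ATP is supplied at KM or lower for each target.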

DAPK1 = DAPK1 (Homo sapiens, UniProt P53355); details: DAPK1, 1 µM inhibitor; read-out: Residual activity, %
DAPK1, sequence (P53355 whole entry): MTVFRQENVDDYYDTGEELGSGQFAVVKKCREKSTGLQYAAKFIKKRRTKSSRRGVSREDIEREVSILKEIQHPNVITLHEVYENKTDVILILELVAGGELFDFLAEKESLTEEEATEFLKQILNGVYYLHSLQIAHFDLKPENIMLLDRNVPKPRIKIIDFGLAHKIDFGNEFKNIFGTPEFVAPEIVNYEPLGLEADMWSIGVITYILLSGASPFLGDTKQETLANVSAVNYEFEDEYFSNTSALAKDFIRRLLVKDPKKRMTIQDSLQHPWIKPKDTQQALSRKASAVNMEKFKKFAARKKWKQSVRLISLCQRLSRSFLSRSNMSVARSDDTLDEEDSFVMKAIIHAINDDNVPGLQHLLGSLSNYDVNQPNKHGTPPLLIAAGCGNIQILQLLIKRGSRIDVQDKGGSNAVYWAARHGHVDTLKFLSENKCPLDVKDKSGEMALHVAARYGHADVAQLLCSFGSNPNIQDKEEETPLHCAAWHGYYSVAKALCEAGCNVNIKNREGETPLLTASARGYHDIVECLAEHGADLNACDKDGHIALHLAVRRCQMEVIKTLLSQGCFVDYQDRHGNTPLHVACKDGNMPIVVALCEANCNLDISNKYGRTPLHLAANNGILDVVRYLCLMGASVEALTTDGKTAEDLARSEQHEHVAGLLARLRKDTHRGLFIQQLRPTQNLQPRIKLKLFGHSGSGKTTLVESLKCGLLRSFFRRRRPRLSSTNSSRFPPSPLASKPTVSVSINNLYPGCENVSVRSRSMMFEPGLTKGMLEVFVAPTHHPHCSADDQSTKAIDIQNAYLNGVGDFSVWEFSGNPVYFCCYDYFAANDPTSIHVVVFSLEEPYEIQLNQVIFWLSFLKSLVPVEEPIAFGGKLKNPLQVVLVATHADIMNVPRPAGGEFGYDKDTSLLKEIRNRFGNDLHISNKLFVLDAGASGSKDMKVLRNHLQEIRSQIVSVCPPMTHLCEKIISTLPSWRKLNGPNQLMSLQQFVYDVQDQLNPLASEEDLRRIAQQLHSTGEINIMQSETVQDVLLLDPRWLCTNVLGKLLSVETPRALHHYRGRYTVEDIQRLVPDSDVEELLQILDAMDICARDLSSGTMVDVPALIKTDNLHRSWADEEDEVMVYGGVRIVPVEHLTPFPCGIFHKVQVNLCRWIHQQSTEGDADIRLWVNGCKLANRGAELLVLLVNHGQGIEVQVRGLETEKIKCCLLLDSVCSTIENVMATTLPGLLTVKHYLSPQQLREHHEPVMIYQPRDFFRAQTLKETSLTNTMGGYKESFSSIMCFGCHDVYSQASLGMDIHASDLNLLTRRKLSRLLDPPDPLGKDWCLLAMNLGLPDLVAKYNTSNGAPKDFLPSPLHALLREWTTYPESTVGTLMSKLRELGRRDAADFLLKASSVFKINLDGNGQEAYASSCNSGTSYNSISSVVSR
In short: as §1

MINK1 = MINK1 (Homo sapiens, UniProt Q8N4C8); details: MINK1, 1 µM inhibitor; read-out: Residual activity, %
In short: as §1

RIPK2 = RIPK2 (Homo sapiens, UniProt O43353); details: RIPK2, 1 µM inhibitor; read-out: Residual activity, %
RIPK2, sequence (O43353 whole entry): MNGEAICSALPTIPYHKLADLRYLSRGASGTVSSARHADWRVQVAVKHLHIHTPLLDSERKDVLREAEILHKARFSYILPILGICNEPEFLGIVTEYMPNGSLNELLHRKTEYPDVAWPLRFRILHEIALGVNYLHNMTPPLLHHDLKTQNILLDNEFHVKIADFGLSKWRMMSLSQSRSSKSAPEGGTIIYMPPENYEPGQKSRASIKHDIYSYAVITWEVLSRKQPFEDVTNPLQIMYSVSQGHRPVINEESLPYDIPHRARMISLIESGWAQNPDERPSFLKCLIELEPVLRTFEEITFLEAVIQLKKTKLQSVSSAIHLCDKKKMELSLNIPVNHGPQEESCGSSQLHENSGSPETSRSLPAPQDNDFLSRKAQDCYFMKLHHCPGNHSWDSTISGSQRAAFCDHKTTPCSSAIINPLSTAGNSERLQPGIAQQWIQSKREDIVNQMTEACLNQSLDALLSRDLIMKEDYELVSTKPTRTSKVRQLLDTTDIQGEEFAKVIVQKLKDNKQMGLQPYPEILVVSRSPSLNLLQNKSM
In short: as §1

TIE2 = TIE2 (Homo sapiens, UniProt Q02763); details: TIE2, 1 µM inhibitor; read-out: Residual activity, %
TIE2, sequence (Q02763 23-1124): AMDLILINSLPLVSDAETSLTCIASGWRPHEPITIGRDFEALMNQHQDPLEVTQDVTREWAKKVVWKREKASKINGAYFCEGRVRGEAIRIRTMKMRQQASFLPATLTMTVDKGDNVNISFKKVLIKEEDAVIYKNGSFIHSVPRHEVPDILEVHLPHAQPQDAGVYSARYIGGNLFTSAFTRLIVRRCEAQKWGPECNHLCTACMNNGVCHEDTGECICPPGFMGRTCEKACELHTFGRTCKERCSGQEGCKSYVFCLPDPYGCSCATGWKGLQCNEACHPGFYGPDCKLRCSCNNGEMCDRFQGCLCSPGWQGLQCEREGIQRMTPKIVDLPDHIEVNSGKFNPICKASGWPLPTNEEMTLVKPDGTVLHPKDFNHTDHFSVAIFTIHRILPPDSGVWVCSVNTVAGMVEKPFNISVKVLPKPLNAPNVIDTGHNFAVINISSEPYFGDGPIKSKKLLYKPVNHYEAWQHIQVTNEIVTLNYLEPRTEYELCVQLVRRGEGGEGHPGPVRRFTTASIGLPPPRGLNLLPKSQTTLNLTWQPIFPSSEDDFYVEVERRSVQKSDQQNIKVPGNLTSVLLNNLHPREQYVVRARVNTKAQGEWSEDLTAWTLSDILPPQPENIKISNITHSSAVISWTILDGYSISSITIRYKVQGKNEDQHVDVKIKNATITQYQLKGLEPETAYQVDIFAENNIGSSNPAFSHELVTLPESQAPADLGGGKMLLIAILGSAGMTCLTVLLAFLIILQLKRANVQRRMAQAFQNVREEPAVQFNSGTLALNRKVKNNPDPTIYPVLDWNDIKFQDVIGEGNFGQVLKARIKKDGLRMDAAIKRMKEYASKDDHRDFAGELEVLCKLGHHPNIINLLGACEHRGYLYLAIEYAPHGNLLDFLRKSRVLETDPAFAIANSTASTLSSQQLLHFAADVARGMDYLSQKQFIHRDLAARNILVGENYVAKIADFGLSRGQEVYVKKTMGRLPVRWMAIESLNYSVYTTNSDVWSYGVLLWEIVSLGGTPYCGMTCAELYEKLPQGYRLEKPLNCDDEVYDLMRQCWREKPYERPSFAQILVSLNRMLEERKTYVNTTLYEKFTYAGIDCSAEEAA
In short: as §1

ULK2 = target: T1, ULK2 (Homo sapiens, UniProt Q8IYT8); details: ULK2, 1 µM inhibitor; read-out: Residual activity, %
T1 sequence (Q8IYT8 1-1036): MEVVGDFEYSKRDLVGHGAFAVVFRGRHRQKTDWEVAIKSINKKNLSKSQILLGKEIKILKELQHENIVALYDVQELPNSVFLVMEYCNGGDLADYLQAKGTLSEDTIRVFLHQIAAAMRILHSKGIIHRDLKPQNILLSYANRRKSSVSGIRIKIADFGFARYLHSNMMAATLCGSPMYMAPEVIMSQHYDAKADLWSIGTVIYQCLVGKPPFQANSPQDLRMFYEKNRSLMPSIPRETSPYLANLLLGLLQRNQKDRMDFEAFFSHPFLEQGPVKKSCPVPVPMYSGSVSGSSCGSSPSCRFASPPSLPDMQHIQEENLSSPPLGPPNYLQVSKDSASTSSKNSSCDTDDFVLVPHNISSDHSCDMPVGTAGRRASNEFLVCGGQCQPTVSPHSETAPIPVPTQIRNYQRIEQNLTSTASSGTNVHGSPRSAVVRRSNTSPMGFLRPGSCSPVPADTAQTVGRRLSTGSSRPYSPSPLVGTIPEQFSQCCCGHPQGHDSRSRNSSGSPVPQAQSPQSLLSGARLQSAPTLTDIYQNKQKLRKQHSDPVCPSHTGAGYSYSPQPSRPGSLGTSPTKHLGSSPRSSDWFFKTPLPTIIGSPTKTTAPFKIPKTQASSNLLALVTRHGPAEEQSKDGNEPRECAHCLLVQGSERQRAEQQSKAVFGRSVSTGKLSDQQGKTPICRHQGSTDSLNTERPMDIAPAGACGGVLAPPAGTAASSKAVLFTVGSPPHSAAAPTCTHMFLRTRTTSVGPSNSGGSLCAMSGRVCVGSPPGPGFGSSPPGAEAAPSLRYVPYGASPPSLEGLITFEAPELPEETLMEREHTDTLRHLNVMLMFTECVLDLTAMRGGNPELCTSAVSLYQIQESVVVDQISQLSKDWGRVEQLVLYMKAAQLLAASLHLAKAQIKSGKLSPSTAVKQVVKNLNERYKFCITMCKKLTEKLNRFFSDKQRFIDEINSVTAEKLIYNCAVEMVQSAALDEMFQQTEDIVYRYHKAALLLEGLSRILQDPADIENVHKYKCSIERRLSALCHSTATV
In short: as §1

CK1δ = CK1δ (Homo sapiens, UniProt P48730); details: 1 µM inhibitor, read-out: Residual activity, %
CK1δ, sequence (P48730 whole entry): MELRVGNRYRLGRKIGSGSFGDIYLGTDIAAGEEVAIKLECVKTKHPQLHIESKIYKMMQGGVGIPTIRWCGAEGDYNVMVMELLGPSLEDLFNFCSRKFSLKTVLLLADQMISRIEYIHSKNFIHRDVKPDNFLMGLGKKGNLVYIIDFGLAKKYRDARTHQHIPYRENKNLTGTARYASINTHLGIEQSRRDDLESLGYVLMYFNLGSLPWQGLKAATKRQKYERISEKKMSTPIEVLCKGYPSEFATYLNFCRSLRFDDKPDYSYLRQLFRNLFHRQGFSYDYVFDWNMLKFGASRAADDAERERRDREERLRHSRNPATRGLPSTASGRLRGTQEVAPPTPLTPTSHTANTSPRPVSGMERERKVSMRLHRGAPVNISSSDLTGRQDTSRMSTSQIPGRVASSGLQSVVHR
In short: as §1

IKK = target: T2, IKK (Homo sapiens, UniProt Q14164); details: second of two IKK lines (Greek letter lost), 1 µM inhibitor, read-out: Residual activity, %
T2 sequence (Q14164 1-716): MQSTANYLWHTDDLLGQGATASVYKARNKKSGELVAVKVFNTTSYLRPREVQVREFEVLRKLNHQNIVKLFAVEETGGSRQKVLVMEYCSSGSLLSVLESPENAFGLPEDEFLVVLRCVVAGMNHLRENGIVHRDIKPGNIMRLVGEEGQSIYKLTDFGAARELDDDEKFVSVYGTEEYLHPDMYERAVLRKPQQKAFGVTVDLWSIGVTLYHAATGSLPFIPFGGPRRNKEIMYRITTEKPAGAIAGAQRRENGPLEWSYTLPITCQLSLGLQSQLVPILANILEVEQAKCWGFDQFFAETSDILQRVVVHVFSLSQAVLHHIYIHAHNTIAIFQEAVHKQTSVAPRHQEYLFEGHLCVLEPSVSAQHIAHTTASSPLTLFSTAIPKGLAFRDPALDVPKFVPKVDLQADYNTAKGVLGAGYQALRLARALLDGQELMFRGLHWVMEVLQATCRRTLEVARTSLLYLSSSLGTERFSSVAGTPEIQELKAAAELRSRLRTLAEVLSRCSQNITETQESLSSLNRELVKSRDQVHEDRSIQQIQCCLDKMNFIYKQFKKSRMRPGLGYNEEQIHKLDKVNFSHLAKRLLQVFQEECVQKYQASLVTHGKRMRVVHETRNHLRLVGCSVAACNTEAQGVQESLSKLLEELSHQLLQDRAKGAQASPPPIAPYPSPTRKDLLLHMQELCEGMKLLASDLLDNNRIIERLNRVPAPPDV
In short: as §1

ERK5 = ERK5 (Homo sapiens, UniProt Q13164); details: ERK5, 1 µM inhibitor; read-out: Residual activity, %
ERK5, sequence (Q13164 whole entry): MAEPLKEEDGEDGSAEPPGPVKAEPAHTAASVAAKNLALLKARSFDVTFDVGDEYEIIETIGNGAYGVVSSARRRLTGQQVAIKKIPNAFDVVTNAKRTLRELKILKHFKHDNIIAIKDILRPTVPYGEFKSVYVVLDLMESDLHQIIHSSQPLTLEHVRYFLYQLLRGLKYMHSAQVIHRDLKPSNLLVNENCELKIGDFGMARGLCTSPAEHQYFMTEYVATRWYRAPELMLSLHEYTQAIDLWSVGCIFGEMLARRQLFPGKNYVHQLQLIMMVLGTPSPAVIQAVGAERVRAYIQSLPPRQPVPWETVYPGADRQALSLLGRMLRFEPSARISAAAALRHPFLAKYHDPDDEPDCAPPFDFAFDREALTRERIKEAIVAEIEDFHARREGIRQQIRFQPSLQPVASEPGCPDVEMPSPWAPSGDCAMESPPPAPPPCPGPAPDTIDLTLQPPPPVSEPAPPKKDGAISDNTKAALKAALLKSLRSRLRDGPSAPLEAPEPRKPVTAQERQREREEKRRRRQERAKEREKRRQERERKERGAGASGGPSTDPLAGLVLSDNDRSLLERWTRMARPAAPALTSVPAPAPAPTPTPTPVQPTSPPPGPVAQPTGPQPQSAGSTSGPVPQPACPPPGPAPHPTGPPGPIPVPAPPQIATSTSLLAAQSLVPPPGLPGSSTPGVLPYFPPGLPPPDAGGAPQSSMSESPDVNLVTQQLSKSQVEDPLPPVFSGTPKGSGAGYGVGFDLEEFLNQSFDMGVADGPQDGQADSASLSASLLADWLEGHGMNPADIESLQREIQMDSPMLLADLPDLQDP
In short: as §1

Structure (SMILES) | remaining activity at 1 µM (GSK3) [%] | remaining activity at 1 µM (DAPK1) [%] | remaining activity at 1 µM (MINK1) [%] | remaining activity at 1 µM (RIPK2) [%] | remaining activity at 1 µM (TIE2) [%] | remaining activity at 1 µM (ULK2) [%] | remaining activity at 1 µM (CK1δ) [%] | remaining activity at 1 µM (IKK) [%] | remaining activity at 1 µM (ERK5) [%]
N=C(N)NCCC[C@@H](NC(=O)CNC(=O)[C@@H](CCCNC(=N)N)NC(=O)[C@@H](CCCNC(=N)N)NC(=O)Cn1cc(CNCc2nc3c(sc4ccc(Br)cc43)c(=O)[nH]2)nn1)C(=O)N[C@H](CCCCN)C(N)=O [Compound 3, BBTP-Amt-(D-Arg)2-Gly-D-Arg-D-Lys-NH2] | 64 ± 8 | 88 ± 3 | 133 ± 14 | 71 ± 8 | 103 ± 12 | 104 ± 11 | 88 ± 12 | 122 ± 12 | 93 ± 4
N=C(N)NCCC[C@@H](NC(=O)CCCCCNCc1nc2c(sc3cc(Br)cnc32)c(=O)[nH]1)C(=O)N[C@H](CCCNC(=N)N)C(=O)N[C@H](CCCNC(=N)N)C(=O)N[C@H](CCCNC(=N)N)C(=O)N[C@H](CCCNC(=N)N)C(=O)N[C@H](CCCNC(=N)N)C(=O)N[C@H](CCCCN)C(N)=O [ARC-3126, BPTP-Ahx-(D-Arg)6-D-Lys-NH2] (X3-[dR][dR][dR][dR][dR][dR][dK]-NH2) | 80 | 49 ± 18 | 104 ± 16 | 99 ± 6 | 106 | 104 ± 9 | 99 ± 1 | 118 ± 12 | 92 ± 1
N=C(N)NCCC[C@@H](NC(=O)CCCCCNC(=O)Cn1cnc2c(I)c(I)c(I)c(I)c21)C(=O)N[C@H](CCCNC(=N)N)C(=O)N[C@H](CCCNC(=N)N)C(=O)N[C@H](CCCNC(=N)N)C(=O)N[C@H](CCCNC(=N)N)C(=O)N[C@H](CCCNC(=N)N)C(=O)N[C@H](CCCCN)C(N)=O [ARC-3125, TIBI-CH2-C(=O)-Ahx-(D-Arg)6-D-Lys-NH2] | 140 ± 13 | 18 ± 1 | 86 ± 1 | 37 ± 6 | 104 ± 9 | 34 ± 3 | 71 ± 4 | 77 ± 4 | 47 ± 1
N=C(N)NCCC[C@@H](NC(=O)CNC(=O)[C@@H](CCCNC(=N)N)NC(=O)[C@@H](CCCNC(=N)N)NC(=O)CCCCCCCNCc1nc2c(sc3cc(Br)cnc32)c(=O)[nH]1)C(=O)N[C@H](CCCCN)C(N)=O [Compound 1, BPTP-Aoc-(D-Arg)2-Gly-D-Arg-D-Lys-NH2] | 110 ± 12 | 85 ± 3 | 129 ± 2 | 62 ± 7 | 110 ± 6 | 115 ± 5 | 104 ± 4 | 116 ± 9 | 111 ± 9
N=C(N)NCCC[C@@H](NC(=O)CNC(=O)[C@@H](CCCNC(=N)N)NC(=O)[C@@H](CCCNC(=N)N)NC(=O)CCCCCCCNCc1nc2c(sc3ccc(Br)cc32)c(=O)[nH]1)C(=O)N[C@H](CCCCN)C(N)=O [Compound 2, BBTP-Aoc-(D-Arg)2-Gly-D-Arg-D-Lys-NH2] | 75 ± 8 | 60 ± 11 | 106 ± 13 | 72 | 109 ± 9 | 127 ± 9 | 99 ± 3 | 104 ± 15 | 77 ± 5
